From article PMC9436414

B1: DadA (Escherichia coli K-12) (protein)
chain: MRVVILGSGVVGVASAWYLNQAGHEVTVIDREPGAALETSAANAGQISPGYAAPWAAPGVPLKAIKWMFQRHAPLAVRLDGTQFQLKWMWQMLRNCDTSHYMENKGRMVRLAEYSRDCLKALRAETNIQYEGRQGGTLQLFRTEQQYENATRDIAVLEDAGVPYQLLESSRLAEVEPALAEVAHKLTGGLQLPNDETGDCQLFTQNLARMAEQAGVKFRFNTPVDQLLCDGEQIYGVKCGDEVIKADAYVMAFGSYSTAMLKGIVDIPVYPLKGYSLTIPIAQEDGAPVSTILDETYKIAITRFDNRIRVGGMAEIVGFNTELLQPRRETLEMVVRDLYPRGGHVEQATFWTGLRPMTPDGTPVVGRTRFKNLWLNTGHGTLGWTMACGSGQLLSDLLSGRTPAIPYEDLSVARYSRGFTPSRPGHLHGAHS
B2: BhcA (Paracoccus denitrificans PD1222) (protein)
chain: MTSQNPIFIPGPTNIPEEMRKAVDMPTIDHRSPVFGRMLHPALEGVKKVLKTTQAQVFLFPSTGTGGWETAITNTLSPGDKVLAARNGMFSHRWIDMCQRHGLDVTFVETPWGEGVPADRFEEILTADKGHEIRVVLATHNETATGVKSDIAAVRRALDAAKHPALLFVDGVSSIGSMDFRMDEWGVDIAVTGSQKGFMLPPGLAIVGFSPKAMEAVETARLPRTFFDIRDMATGYARNGYPYTPPVGLINGLNASCERILAEGLENVFARHHRIASGVRAAVDAWGLKLCAVRPELYSDSVSAIRVPEGFDANLIVSHALETYDMAFGTGLGQVAGKVFRIGHLGSLTDAMALSGIATAEMVMADLGLPIQLGSGVAAAQEHYRQTTAAAQKKAA

Experiments:
Assay in all cases: purified protein
purified protein [1] = substrate: C[C@@H](N)C(=O)O; details: 200 mM HEPES/KOH pH 7.5, 0.1 mM DCPIP, 1.5 mM PES, 10 mM KCN, 37 °C, pH 7.5
purified protein [2] = substrate: N[C@H](CO)C(=O)O; details: DCPIP-coupled assay, 37 °C, exact D-serine reaction mix not stated
purified protein [3] = substrate: N[C@@H](CO)C(=O)O; details: 7 mM oxaloacetate as acceptor, 50 mM HEPES/KOH pH 7.5, 37 °C, pH 7.5
purified protein [4] = substrate: O=C(O)CC(=O)C(=O)O; details: 100 mM serine as amine donor, 50 mM HEPES/KOH pH 7.5, 37 °C, pH 7.5

| Protein | Km (purified protein [1]) [mM] | kcat (purified protein [1]) [s⁻¹] | kcat/Km (purified protein [1]) [M⁻¹ s⁻¹] | Km (purified protein [2]) [mM] | kcat (purified protein [2]) [s⁻¹] | kcat/Km (purified protein [2]) [M⁻¹ s⁻¹] | Km (purified protein [3]) [mM] | kcat (purified protein [3]) [s⁻¹] | Km (purified protein [4]) [mM] | kcat (purified protein [4]) [s⁻¹] | kcat/Km (purified protein [4]) [M⁻¹ s⁻¹] |
| --- | --- | --- | --- | --- | --- | --- | --- | --- | --- | --- | --- |
| B1 | 1.26 ± 0.26 | 0.81 | 642 | 64.77 ± 9.28 | 0.37 | 5.71 |  |  |  |  |  |
| B2 |  |  |  |  |  |  | 7 | 25.9 | 0.23 ± 0.03 | 31.2 | 140000 |
